This experiment concerns the target human CD20 (human) (UniProt P11836).

% of cytotoxicity (dead CFSE+ 7-AAD+ Raji target cells), ADCC with PBMC effector cells data for one substance are collected here from patent US9579382B2.

The substance rituximab (antibody) showed a % of cytotoxicity (dead CFSE+ 7-AAD+ Raji target cells), ADCC with PBMC effector cells at 25:1 for 6 hours of 25%.
